Reference: patent US8003599

Molecular target: human L1 adhesion molecule (L1-CAM), wild type, on cells
Sequence (chain, as listed by the source): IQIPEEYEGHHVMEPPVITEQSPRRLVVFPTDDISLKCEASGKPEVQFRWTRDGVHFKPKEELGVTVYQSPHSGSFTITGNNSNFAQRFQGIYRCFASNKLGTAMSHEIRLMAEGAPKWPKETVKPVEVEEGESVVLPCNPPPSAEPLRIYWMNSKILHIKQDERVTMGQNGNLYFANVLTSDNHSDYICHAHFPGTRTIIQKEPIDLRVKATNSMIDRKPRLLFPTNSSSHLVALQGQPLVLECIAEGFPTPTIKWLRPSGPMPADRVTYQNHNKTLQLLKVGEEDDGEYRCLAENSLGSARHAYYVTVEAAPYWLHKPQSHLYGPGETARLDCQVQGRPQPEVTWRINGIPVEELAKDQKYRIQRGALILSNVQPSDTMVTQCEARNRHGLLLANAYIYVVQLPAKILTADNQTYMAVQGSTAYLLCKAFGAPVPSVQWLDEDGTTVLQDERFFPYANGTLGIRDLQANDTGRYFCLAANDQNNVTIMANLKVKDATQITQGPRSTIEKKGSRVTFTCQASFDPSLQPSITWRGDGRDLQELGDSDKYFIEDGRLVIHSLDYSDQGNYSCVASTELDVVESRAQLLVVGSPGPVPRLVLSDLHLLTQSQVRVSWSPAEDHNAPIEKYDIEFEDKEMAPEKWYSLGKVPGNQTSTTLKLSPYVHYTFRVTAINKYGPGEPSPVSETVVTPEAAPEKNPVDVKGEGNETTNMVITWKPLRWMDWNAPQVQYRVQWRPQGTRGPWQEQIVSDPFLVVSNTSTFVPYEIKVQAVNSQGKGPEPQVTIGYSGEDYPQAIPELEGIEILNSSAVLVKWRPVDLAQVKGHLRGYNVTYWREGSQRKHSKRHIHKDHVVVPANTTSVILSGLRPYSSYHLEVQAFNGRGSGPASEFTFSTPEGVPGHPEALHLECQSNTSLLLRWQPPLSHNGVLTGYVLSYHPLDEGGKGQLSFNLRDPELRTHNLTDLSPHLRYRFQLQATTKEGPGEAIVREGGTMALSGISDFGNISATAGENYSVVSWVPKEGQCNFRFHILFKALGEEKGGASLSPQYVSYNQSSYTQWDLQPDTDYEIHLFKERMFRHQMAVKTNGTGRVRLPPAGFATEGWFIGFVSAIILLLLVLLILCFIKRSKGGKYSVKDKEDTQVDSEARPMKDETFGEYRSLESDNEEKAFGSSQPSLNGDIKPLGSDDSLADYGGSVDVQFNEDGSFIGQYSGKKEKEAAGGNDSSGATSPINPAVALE

B1: human ADAM10 (membrane-bound metalloproteinase) (protein)
chain: TTSAEKNTCQLYIQTDHLFFKYYGTREAVIAQISSHVKAIDTIYQTTDFSGIRNISFMVKRIRINTTADEKDPTNPFRFPNIGVEKFLELNSEQNHDDYCLAYVFTDRDFDDGVLGLAWVGAPSGSSGGICEKSKLYSDGKKKSLNTGIITVQNYGSHVPPKVSHITFAHEVGHNFGSPHDSGTECTPGESKNLGQKENGNYIMYARATSGDKLNNNKFSLCSIRNISQVLEKKRNNCFVESGQPICGNGMVEQGEECDCGYSDQCKDECCFDANQPEGRKCKLKPGKQCSPSQGPCCTAQCAFKSKSEKCRDDSDCAREGICNGFTALCPASDPKPNFTDCNRHTQVCINGQCAGSICEKYGLEECTCASSDGKDDKELCHVCCMKKMDPSTCASTGSVQWSRHFSGRTITLQPGSPCNDFRGYCDVFMRCRLVDADGPLARLKKAIFSPELYENIAEWIVAHWWAVLLMGIALIMLMAGFIKICSVHTPSSNPKLPPPKPLPGTLKRRRPPQPIQQPQRQRPRESYQMGHMRR
- L1 cleavage: L1 cleavage required the membrane-bound metalloproteinase ADAM10
